Patent publication US20230391828A1, “REGULATORS OF CELL DIVISION” (TECHNISCHE UNIVERSITÄT DRESDEN, priority 2020, published 2023)
Entries after “also recorded” stand apart in the source; their conditions may differ. Bridge positions count the residues as written; N and C are the ends. Square brackets hold non-standard residues; d marks the D form. 2Nal = N[C@@H](Cc1ccc2ccccc2c1)C(=O)O; R8 = C=CCCCCCC[C@@](C)(N)C(=O)O; S5 = C=CCCC[C@](C)(N)C(=O)O; Pra = C#CC[C@H](N)C(=O)O

What was measured:
APC/C = target: T1, APC/C (Homo sapiens, UniProt Q9NYG5); assay: In vitro APC/C ubiquitination assay driven by the E2 enzyme UBE2C, fluorophore-labelled securin substrate; format: biochemical; conditions: 100 μM, UBE2C, reaction time 45 min
T1 construct: made in house; host or cells: SF9 insect cells (baculovirus)
Protocol: Proteins were separated by SDS-PAGE electrophoresis using precast Bolt 4-12% Bis-Tris Plus protein gels (Thermo Fisher Scientific) and Criterion XT Bis-Tris Midi Protein Gels (Bio-Rad). In different experiments, various conditions were used: in vitro APC/C ubiquitination assays—165 V, 40 min, SDS-MES running buffer (50 mM MES, 50 mM Tris base, 0.1% SDS, 1 mM EDTA, pH 7.3; Thermo Fisher Scientific); in vitro APC/C ubiquitination assays determining KM—165V, 1 h, SDS-MOPS running buffer (50 mM MOPS, 50 mM Tris base, 0.1% SDS, 1 mM EDTA, pH 7.7; Thermo Fisher Scientific); pull-down binding assay—165 V, 35 min, SDS-MES running buffer.
APC/C-dependent ubiquitination reactions were performed at 30° C. in 30 mM HEPES pH 7.4, 175 mM NaCl, 8 mM MgCl2, 0.05% Tween-20, 1 mM DTT and 5% glycerol and contained 20 nM recombinant APC/C (note, for testing the first generation of inhibitors, APC/C and Cdc20 immunoprecipitated from mitotic HeLa K cells was used), 340 nM Cdc20, 46 nM GST-UBA1, 340 nM UBE2C (alternatively 400 nM UBE2D1, 280 nM UBE2S), 21 μM His6-ubiquitin or if it is indicated 21 μM methylated-ubiquitin (BostonBiochem), 2.6 mM ATP, 10 mM phosphocreatine and 11 μM creatine kinase. As substrates, 35 nM fluorophore-labeled ubiquitin-cyclin B and 50 nM fluorophore-labeled securin were standardly used (fluorophore IRDye 800CW (LI-COR) was used for labelling). In case of KM and kcat determination, 50, 100, 250, 500, 750, 1000, 1250, 2500 and 5000 nM fluorophore-labelled securin was used. The reaction was done in the volume of 15 μl, it was quenched after the indicated time with LDS sample buffer (Thermo Fisher Scientific) supplemented with 100 mM DTT and subjected to SDS-PAGE. Detection of fluorescently labelled substrates was done by quantitative near-infrared scanning system Odyssey.

APC/C (APC11) = target: T2, APC/C (APC11) (Homo sapiens, UniProt Q9NYG5); assay: Pull-down binding assay in HeLa K cell extract, APC/C; conditions: Pra peptide clicked to azide agarose or magnetic beads, Western blot
T2 construct: endogenous in cells; host or cells: HeLa K cell extract
Protocol: (§1) For the protein transfer, the 0.45 μm Immobilon-FL PVDF membrane (Merck Millipore) was used. The membrane was activated in ethanol and then transferred to the Blotting buffer (50 mM SDS-MOPS, 50 mM Tris base, 0.1% SDS, 1 mM EDTA, 20% EtOH). The proteins were transferred using a wet transfer for 1.5 h at 400 mA. Subsequently, the membrane was incubated with the blocking solution, 10% milk in PBS-T (0.02% Tween-20 in PBS), for 1 h at room temperature. To detect proteins of the interest, the membrane was incubated with primary antibodies overnight at 4° C. Followed by washing the membrane 3 times 10 min with PBS-T and incubation with IRDye fluorescently labelled secondary antibodies for 1 h. Prior detection, the membrane was twice washed with PBS-T for 10 min and once with PBS for 10 min. The detection was done using the quantitative near-infrared scanning system Odyssey (LI-COR Biosciences).
HeLa K cell pellet was re-suspended in the extraction buffer (30 mM HEPES pH 7.5, 175 mM NaCl, 2.5 mM MgCl2, 0.25% NP40, 10% glycerol, 1 mM DTT) supplemented with 10 μM MG132 (VWR), 1 mM PMSF (Sigma-Aldrich), complete protease inhibitor cocktail (Roche) and PhosSTOP phosphatase inhibitors (Roche) and incubated for 20 min on ice, followed by centrifugation of cell debris for 15 min at 4° C. 16 100 g. In mean time, inhibitor molecules containing Propargyl (Pra) chemical group were covalently attached to the azide agarose or azide magnetic resin (Jena Bioscience) by Cu(I)-catalysed azide-alkyne cycloaddition reaction. Specifically, the inhibitor molecules were mixed with azide agarose resin in ratio 0.125 μmol inhibitor/25 μl agarose resin and azide magnetic resin in ratio 0.018 μmol inhibitor/20 μl magnetic resin. The reaction was catalysed by 1 mM CuSO4, 0.1 mM TBTA (Sigma-Aldrich) and 1 mM Sodium ascorbate and was performed on the rotating wheel for 30 min at room temperature in the volume of 1 ml. Subsequently, the resin was washed 5 times with the extraction buffer. The inhibitor-agarose resin was added to 1 mg of HeLa K cell extract and the inhibitor-magnetic resin was added to 0.5 mg of HeLa K cell extract followed by incubation at 4° C. for 2 h. Followed by washing the resin 5 times with the extraction buffer. Pull-down proteins were eluted by boiling for 15 min with 1×LDS sample buffer supplemented with 100 mM DTT (agarose resin) or by incubation with 1×LDS sample buffer for 10 min at room temperature followed by taking supernatant that was supplemented with 100 mM DTT and boiling it for 10 min. Samples were subjected to SDS PAGE and Western blot analysis.
HeLa K cell pellet was re-suspended in the extraction buffer (30 mM HEPES pH 7.5, 175 mM NaCl, 2.5 mM MgCl2, 0.25% NP40, 10% glycerol, 1 mM DTT supplied with complete protease inhibitor cocktail (Roche), PhosSTOP phosphatase inhibitors (Roche), 1 mM PMSF, 10 μM MG132) and incubated for 20 min on ice, followed by centrifugation to clear the lysate for 15 min at 4° C. 16,100 g. In the meantime, inhibitor molecules containing the propargyl-Gly-OH (Pra) chemical group were covalently attached to the azide agarose resin (Jena Bioscience) by Cu(I)-catalysed azide-alkyne cycloaddition reaction. Specifically, the inhibitor molecules were mixed with azide agarose resin in ratio 0.125 μmol inhibitor/20 μl agarose resin. The reaction was catalysed by 0.1 mM CuSO4, 0.5 mM THPTA (Sigma-Aldrich) and 5 mM Sodium ascorbate and was performed on the rotating wheel for 30 min at room temperature in the volume of 1 ml. […]

hTERT RPE-1 cells = assay: Live cell imaging of hTERT RPE-1 cells; format: cell-based; conditions: hTERT RPE-1, 100 μM, imaged 12-24 h
Protocol: Automated time-lapse microscopy was performed using ImageXpress Micro XLS wide-field screening microscope (Molecular Devices) equipped with a 10×, 0.5 NA., 20×, 0.7 NA, and 40×, 0.95 NA Plan Apo air objectives (Nikon), a laser-based autofocus and a full environmental control (5% CO2, 37° C.). Cells were grown in 96-well plastic bottom plates (clear, Greiner Bio-One) and for live cell imaging media was changed to DMEM without phenol red and riboflavin (Thermo Fisher Scientific), supplemented with 10% (v/v) FBS, 1% (v/v) Glutamax, 1% (v/v) penicillin-streptomycin, and 0.5 μg/ml amphotericin B.
hTERT RPE-1 cells were seeded into 96-well plates (5000 cells) one day prior the treatment with compounds of the invention. Cells were treated with 100 μM of compound G2-6 and the negative control molecule G2-N2 and cell division was monitored by live cell imaging using ImageXpress Micro XLS wide-field screening microscope, images were acquired every 3 min for time courses of 12-24 h. The length of mitosis was determined manually.

Cullin 1 = target: T3, Cullin 1 (Homo sapiens, UniProt Q13616); assay: Pull-down binding assay in HeLa K cell extract, Cullin 1; conditions: azide beads, Western blot
T3 construct: endogenous in cells; host or cells: HeLa K cell extract
Protocol: as §1
(§2) HeLa K cell pellet was re-suspended in the extraction buffer (30 mM HEPES pH 7.5, 175 mM NaCl, 2.5 mM MgCl2, 0.25% NP40, 10% glycerol, 1 mM DTT) supplemented with 10 μM MG132 (VWR), 1 mM PMSF (Sigma-Aldrich), complete protease inhibitor cocktail (Roche) and PhosSTOP phosphatase inhibitors (Roche) and incubated for 20 min on ice, followed by centrifugation of cell debris for 15 min at 4° C. 16 100 g. […]

RBX1 = target: T4, RBX1 (Homo sapiens, UniProt P62877); assay: Pull-down binding assay in HeLa K cell extract, RBX1; conditions: azide beads, Western blot
T4 construct: endogenous in cells; host or cells: HeLa K cell extract
Protocol: as §1, §2

T3 sequence (Q13616 whole entry): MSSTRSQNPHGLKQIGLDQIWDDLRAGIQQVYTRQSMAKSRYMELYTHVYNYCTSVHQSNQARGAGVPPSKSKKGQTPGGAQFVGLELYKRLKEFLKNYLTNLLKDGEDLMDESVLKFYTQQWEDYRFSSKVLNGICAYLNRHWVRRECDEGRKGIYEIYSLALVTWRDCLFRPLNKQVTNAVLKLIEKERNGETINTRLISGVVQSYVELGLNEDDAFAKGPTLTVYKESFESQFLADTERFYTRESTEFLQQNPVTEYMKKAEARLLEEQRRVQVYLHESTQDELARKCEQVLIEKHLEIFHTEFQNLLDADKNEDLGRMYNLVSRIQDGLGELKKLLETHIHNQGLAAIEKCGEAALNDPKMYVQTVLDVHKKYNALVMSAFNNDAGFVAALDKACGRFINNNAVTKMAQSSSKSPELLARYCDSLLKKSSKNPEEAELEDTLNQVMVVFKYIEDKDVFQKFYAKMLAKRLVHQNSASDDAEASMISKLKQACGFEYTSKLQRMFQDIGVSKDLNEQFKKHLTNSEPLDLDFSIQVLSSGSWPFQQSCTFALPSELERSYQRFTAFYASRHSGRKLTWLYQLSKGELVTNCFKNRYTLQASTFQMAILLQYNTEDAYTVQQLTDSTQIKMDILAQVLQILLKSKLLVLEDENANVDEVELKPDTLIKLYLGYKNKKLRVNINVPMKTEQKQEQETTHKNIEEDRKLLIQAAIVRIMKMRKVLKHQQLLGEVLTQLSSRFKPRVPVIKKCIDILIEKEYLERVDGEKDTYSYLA
T4 sequence (P62877 whole entry): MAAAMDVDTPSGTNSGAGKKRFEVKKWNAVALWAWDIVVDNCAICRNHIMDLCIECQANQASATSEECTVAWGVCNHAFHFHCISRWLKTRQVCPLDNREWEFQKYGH

Substance | inhibition of APC/C activity in vitro compared with TAME (APC/C; 3 independent assays) | binding to the APC/C (pull-down) (APC/C (APC11)) | inhibition of APC/C activity in vitro (ubiquitinated securin) (APC/C) | cell fate (cell death) (hTERT RPE-1 cells) | effect on mitosis (length of mitosis) (hTERT RPE-1 cells) | binding to Cullin 1 (pull-down) (Cullin 1) | binding to RBX1 (pull-down) (RBX1)
Ac-cyclo(5,9)-RWPQXKWDXQVRRW-NH2 (Ac-RWPQ[S5]KWD[S5]QVRRW-NH2; staple 5-9; SMILES CC(=O)N[C@@H](CCCNC(=N)N)C(=O)N[C@@H](Cc1c[nH]c2ccccc12)C(=O)N1CCC[C@H]1C(=O)N[C@@H](CCC(N)=O)C(=O)N[C@@]1(C)CCCC=CCCC[C@@](C)(C(=O)N[C@@H](CCC(N)=O)C(=O)N[C@H](C(=O)N[C@@H](CCCNC(=N)N)C(=O)N[C@@H](CCCNC(=N)N)C(=O)N[C@@H](Cc2c[nH]c3ccccc23)C(N)=O)C(C)C)NC(=O)[C@H](CC(=O)O)NC(=O)[C@H](Cc2c[nH]c3ccccc23)NC(=O)[C@H](CCCCN)NC1=O) [G3-1] | inhibit APC/C in vitro more efficiently than TAME | binds specifically to the APC/C |  |  |  |  | 
cyclo(1,14)-[L 2-NaI L W K W E W E K R K p P] (cyclo(L[2Nal]LWKWEWEKRK[dP]P); SMILES CC(C)C[C@@H]1NC(=O)[C@H](Cc2ccc3ccccc3c2)NC(=O)[C@H](CC(C)C)NC(=O)[C@@H]2CCCN2C(=O)[C@H]2CCCN2C(=O)[C@H](CCCCN)NC(=O)[C@H](CCCNC(=N)N)NC(=O)[C@H](CCCCN)NC(=O)[C@H](CCC(=O)O)NC(=O)[C@H](Cc2c[nH]c3ccccc23)NC(=O)[C@H](CCC(=O)O)NC(=O)[C@H](Cc2c[nH]c3ccccc23)NC(=O)[C@H](CCCCN)NC(=O)[C@H](Cc2c[nH]c3ccccc23)NC1=O) [G2-6] |  |  | the most potent molecule from item (f); also recorded: inhibit APC/C in vitro the most effectively compared to other molecules of item (f) | causes cell death; also recorded: mitotic or subsequent cell death | prolongs mitosis; also recorded: causes prolonged mitosis |  | 
Ac-cyclo(5,9)-RWPPraXKWDXQVRRW-NH2 (Ac-RWP[Pra][S5]KWD[S5]QVRRW-NH2; staple 5-9; SMILES C#CC[C@H](NC(=O)[C@@H]1CCCN1C(=O)[C@H](Cc1c[nH]c2ccccc12)NC(=O)[C@H](CCCNC(=N)N)NC(C)=O)C(=O)N[C@@]1(C)CCCC=CCCC[C@@](C)(C(=O)N[C@@H](CCC(N)=O)C(=O)N[C@H](C(=O)N[C@@H](CCCNC(=N)N)C(=O)N[C@@H](CCCNC(=N)N)C(=O)N[C@@H](Cc2c[nH]c3ccccc23)C(N)=O)C(C)C)NC(=O)[C@H](CC(=O)O)NC(=O)[C@H](Cc2c[nH]c3ccccc23)NC(=O)[C@H](CCCCN)NC1=O) [G3-1Pra] |  | binds to the APC/C (APC2 and APC11) |  |  |  | almost does not bind | 
Ac-cyclo(4,11)-EWPraZIKEIQRXRRA-NH2 (Ac-EW[Pra][R8]IKEIQR[S5]RRA-NH2; staple 4-11; SMILES C#CC[C@H](NC(=O)[C@H](Cc1c[nH]c2ccccc12)NC(=O)[C@H](CCC(=O)O)NC(C)=O)C(=O)N[C@]1(C)CCCCCCC=CCCC[C@@](C)(C(=O)N[C@@H](CCCNC(=N)N)C(=O)N[C@@H](CCCNC(=N)N)C(=O)N[C@@H](C)C(N)=O)NC(=O)[C@H](CCCNC(=N)N)NC(=O)[C@H](CCC(N)=O)NC(=O)[C@H]([C@@H](C)CC)NC(=O)[C@H](CCC(=O)O)NC(=O)[C@H](CCCCN)NC(=O)[C@H]([C@@H](C)CC)NC1=O) [G3-6Pra] |  | binds to the APC/C |  |  |  | does not bind | does not bind
